Experimental data: US20240400677A1 (ELECTRA THERAPEUTICS, published 2024)
Residue numbers refer to the chain shown, from its start. Blank lines part the entries; values can stand above or below the binder they belong to.

Key:
[1] = target: T1, cynomolgus monkey SIRPγ-His monomer protein (cynomolgus monkey, UniProt Q9P1W8 29-359 (human entry), limits assumed); assay: BLI Octet, antibody on AHC, global 1:2 model
T1 construct: also called Cyno SIRPγ; Cyno SIRPγ-His
T1 chain: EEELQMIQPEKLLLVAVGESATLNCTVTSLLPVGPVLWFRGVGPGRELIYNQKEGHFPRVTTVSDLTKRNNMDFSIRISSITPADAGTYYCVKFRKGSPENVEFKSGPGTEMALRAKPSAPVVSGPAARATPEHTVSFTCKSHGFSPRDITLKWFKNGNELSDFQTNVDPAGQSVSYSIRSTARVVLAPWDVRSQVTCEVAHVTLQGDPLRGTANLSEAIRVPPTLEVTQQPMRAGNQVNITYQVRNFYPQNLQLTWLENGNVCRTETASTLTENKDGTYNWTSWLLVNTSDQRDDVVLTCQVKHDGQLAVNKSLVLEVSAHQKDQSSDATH
Description: (§1) Antibodies were coated onto anti-human Fc capture (AHC) biosensors. SIRP-His monomer protein or bivalent SIRP protein with mouse Fc at four concentrations (200 nM, 100 nM, 50 nM, 25 nM) were exposed to the biosensor to measure on-rate kinetics of SIRP antibodies binding to SIRP protein. The biosensors were then exposed to wash buffer to measure off-rate kinetics. The resulting kinetic data were analyzed and fitted using a global 1:2 binding model.

[2] = target: T2, bivalent human SIRPγ protein with mouse Fc (human, UniProt Q9P1W8 29-360); assay: BLI Octet, antibody on AHC, global 1:2 model
T2 construct: also called Human SIRPγ-mFc
T2 sequence (Q9P1W8 29-360 limits assumed): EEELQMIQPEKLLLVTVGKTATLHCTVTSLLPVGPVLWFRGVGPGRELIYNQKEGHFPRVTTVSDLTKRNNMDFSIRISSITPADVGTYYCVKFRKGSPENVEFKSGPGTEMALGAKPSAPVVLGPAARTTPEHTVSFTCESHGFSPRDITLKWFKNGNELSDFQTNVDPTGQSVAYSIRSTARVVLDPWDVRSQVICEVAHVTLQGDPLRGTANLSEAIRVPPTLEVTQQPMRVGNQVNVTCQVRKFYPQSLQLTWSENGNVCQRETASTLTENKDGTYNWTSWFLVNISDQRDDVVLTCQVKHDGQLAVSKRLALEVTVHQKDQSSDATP
Description: as §1

[3] = target: T3, human SIRPγ-His monomer protein (human, UniProt Q9P1W8 29-360); assay: BLI Octet, antibody on AHC, global 1:2 model
T3 construct: also called hSIRPγ
T3 sequence (Q9P1W8 29-360 limits assumed): as above
Description: as §1

[4] = target: T4, human SIRPβ1 on CHO cells (co-transfected with DAP12) (human, UniProt O00241 30-398); assay: flow cytometry, CHO transfectants, anti-human IgG
T4 construct: whole, on cells; co-transfected with DAP12; also called Human SIRPβ1 CHO
T4 sequence (O00241 30-398): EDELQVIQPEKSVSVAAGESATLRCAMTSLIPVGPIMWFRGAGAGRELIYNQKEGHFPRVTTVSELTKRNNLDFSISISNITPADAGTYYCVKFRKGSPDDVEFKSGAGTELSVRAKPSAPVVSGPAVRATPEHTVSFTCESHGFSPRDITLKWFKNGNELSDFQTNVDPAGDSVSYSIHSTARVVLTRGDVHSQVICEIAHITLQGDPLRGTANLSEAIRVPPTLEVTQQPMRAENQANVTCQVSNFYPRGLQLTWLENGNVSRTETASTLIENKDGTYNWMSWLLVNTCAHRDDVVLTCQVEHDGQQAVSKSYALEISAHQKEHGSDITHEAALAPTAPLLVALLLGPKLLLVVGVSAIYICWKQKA
Method in brief: (§2)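 Flow cytometry on stable CHO transfectants; antibody titration; fluorescent anti-human IgG detection; MFI per concentration. myc-tagged scFv: crude PPE on SIRP-expressing CHO and parental CHO-K1; fold change <2.0 = non-binder.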

[5] = target: T5, cynomolgus monkey SIRPα on CHO cells (cynomolgus monkey, UniProt A0A2K5VYQ9 31-507); assay: flow cytometry, CHO transfectants, anti-human IgG
T5 construct: whole, on cells; also called Cyno SIRPα CHO
T5 sequence: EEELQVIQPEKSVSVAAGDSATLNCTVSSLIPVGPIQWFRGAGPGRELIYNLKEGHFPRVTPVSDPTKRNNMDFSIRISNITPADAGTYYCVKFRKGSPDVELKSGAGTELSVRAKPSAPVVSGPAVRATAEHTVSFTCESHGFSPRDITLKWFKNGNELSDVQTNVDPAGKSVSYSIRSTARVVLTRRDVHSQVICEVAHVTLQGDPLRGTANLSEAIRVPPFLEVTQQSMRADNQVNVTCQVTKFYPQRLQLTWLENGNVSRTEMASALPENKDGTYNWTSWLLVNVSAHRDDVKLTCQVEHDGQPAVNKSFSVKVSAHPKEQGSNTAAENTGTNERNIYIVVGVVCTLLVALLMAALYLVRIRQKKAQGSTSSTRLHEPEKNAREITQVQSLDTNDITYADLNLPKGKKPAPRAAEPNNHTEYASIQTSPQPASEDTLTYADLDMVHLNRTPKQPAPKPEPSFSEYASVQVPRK
Method in brief: as §2

[6] = target: T6, Cynomolgus Monkey SIRPγ (plate-coated extracellular domain); assay: ELISA, coated SIRP ECD (2 µg/mL), anti-human IgG, luminescence
T6 construct: also called Cyno SIRPγ
T6 extracellular domain: T1 chain
Description: (§3) Selected hybridoma supernatants of Example 1 were tested for binding to human SIRPγ, cynomolgus monkey SIRPγ, human SIRPα V1, cynomolgus monkey SIRPα, human SIRPβ1, and cynomolgus monkey SIRPβ1 by enzyme-linked immunosorbent assay (ELISA). Briefly, 2 μg/mL of the extracellular domain of SIRP protein was coated onto high protein-binding plates and blocked. Undiluted supernatants were added to coated plates. The antibodies were detected by an anti-rat antibody and a chemiluminescent substrate. […] The data depict the relative luminescence units read by a plate-reader capable of detecting chemiluminescence.
(§4) FIGS. 2A-2G show binding curves of SIRPγ antibodies and human Fc isotype controls to human SIRPγ, cynomolgus monkey SIRPγ, human SIRPα V1, human SIRPα V2, and human SIRPβ1 by ELISA. […] Isotype control 2 was an unrelated human IgG1 antibody with irrelevant CDRs with no modifications in the Fc region. DNA was transiently transfected into Expi293F cells for 5 days. Antibodies were purified by Protein A from cell supernatants and analyzed in a titration via ELISA as previously described in FIG. 1 using an anti-human IgG antibody as the detection antibody.

[7] = target: T7, extracellular binding domain of human SIRPγ (plate-coated) (human, UniProt Q9P1W8 29-360); assay: as above
T7 construct: also called hSIRPγ
T7 sequence (Q9P1W8 29-360 limits assumed): as the sequence (Q9P1W8 29-360 limits assumed) above
Description: as §3, §4

[8] = target: T8, cynomolgus monkey SIRPγ on CHO cells (cynomolgus monkey, UniProt Q9P1W8 29-386 (human entry)); assay: flow cytometry, CHO transfectants, anti-human IgG
T8 construct: also called Cyno SIRPγ CHO
T8 chain: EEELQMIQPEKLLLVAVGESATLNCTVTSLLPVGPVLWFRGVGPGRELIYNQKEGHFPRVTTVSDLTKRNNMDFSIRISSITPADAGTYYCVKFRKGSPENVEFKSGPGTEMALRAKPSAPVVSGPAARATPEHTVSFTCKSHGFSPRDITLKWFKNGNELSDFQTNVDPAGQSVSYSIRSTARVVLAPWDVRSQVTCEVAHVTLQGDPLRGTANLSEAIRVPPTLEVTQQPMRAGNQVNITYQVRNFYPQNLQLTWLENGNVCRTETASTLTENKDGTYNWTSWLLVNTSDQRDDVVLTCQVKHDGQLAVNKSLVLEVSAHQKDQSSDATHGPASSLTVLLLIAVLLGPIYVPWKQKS
Method in brief: as §2

[9] = target: T9, human SIRPγ on stably transfected CHO cells (human, UniProt Q9P1W8 29-387); assay: flow cytometry, CHO transfectants, anti-human IgG
T9 construct: also called Human SIRPγ CHO
T9 sequence (Q9P1W8 29-387 limits assumed): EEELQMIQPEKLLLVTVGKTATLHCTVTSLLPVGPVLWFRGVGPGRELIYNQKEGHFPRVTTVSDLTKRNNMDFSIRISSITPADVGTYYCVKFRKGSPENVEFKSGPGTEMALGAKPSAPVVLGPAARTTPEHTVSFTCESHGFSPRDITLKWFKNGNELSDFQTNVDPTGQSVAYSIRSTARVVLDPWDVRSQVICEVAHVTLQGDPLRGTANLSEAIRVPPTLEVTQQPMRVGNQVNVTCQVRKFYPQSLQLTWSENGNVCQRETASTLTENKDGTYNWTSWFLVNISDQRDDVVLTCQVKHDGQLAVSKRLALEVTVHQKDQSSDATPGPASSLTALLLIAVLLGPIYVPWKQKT
Method in brief: as §2

- Kd [1]: 48.2 nM
- Kd [2]: 3.92 nM
- Kd [3]: 56.1 nM
B1: Antibody 86 (antibody, V domains shown)
VH: EVQLLESGGGLVQPGGSLRLSCAASGFTLGSYWMHWVRQAPGKGLEWVSLISWDGGSTYYADSVKGRFTISRDNSKNTLYLQMNSLRAEDTAVYYCAKGPWVGYSGYDLNYYYYGMDVWGQGTTVTVSS
VL: DIQMTQSPSSLSASVGDRVTITCRASQDIRRALAWYQQKPGKAPKLLIYAASSLQSGVPSRFSGSGSGTDFTLTISSLQPEDFATYYCLQHNSYPPTFGQGTKLEIK

- Kd [1]: 26.2 nM
- Kd [2]: 1320 nM
- Kd [3]: 297 nM
- binding result [4]: no binding (tested: about 30 µg/mL)
- binding result [5]: no binding (tested: about 30 µg/mL)
- EC50 (read off the curve) [6]: ~0.2 µg/mL
- EC50 (read off the curve) [7]: ~0.3 µg/mL
B2: Antibody 89 (antibody, V domains shown)
VH: QVQLVQSGAEVKKPGASVKVSCKASGGTFSSYAISWVRQAPGQGLEWMGIINPSSSSTGYAQKFQGRVTMTRDTSTSTVYMELSSLRSEDTAVYYCARAGYYDSSGYYYSPYYGMDVWGQGTTVTVSS
VL: EIVMTQSPATLSVSPGERATLSCRASQSISGSYLAWYQQKPGQAPRLLIYGASTRATGIPARFSGSGSGTEFTLTISSLQSEDFAVYYCQQYGSFPFTFGPGTKVDIK

- binding result [4]: no binding (tested: about 20 µg/mL)
- EC50 (read off the curve) [8]: ~0.7 µg/mL
- binding result [5]: no binding (tested: about 20 µg/mL)
- EC50 (read off the curve) [6]: ~0.03 µg/mL
- EC50 (read off the curve) [7]: ~0.01 µg/mL
B3: Antibody 82 (antibody, V domains shown)
VH: QVQLVQSGAEVKKPGASVKVSCKASGHTFNNNYIHWVRQAPGQGLEWMGIINPSGGSTSYAQKFQGRVTMTRDTSTSTVYMELSSLRSEDTAVYYCARQIQDYGYYYYGMDVWGQGTTVTVSS
VL: EIVMTQSPATLSVSPGERATLSCRASQSVSKYLAWYQQKPGQAPRLLIYAISARAAGIPARFSGSGSGTEFTLTISSLQSEDFAVYYCQQYYSSPPTFGQGTKVEIK

- binding result [4]: no binding (tested: about 20 µg/mL)
- EC50 (read off the curve) [8]: ~0.4 µg/mL
- EC50 (read off the curve) [9]: ~0.6 µg/mL
- binding result [5]: no binding (tested: about 20 µg/mL)
B4: Antibody 57 (antibody, V domains shown)
VH: QVQLVQSGAEVKKPGASVKVSCKASGYTFTSYYMHWVRQAPGQGLEWMGWINPNSGNAGFAQKFQGRVTMTRDTSTSTVYMELSSLRSEDTAVYYCARGPVYSYGPFDYWGQGTLVTVSS
VL: DIQMTQSPSSLSASVGDRVTITCRASQGISTYLAWYQQKPGKAPKLLIYAASTLQSGVPSRFSGSGSGTDFTLTISSLQPEDFATYYCQQSHSAPITFGQGTKVEIK

- binding result [4]: no binding (tested: about 20 µg/mL)
- EC50 (read off the curve) [8]: ~0.5 µg/mL
- binding result [5]: no binding (tested: about 20 µg/mL)
- EC50 (read off the curve) [6]: ~0.06 µg/mL
- EC50 (read off the curve) [7]: ~0.03 µg/mL
B5: Antibody 79 (antibody, V domains shown)
VH: QVQLVQSGAEVKKPGASVKVSCKASGYTFTSYYMHWVRQAPGQGLEWMGWMNPNSGNTGYAQKFQGRVTMTRDTSTSTVYMELSSLRSEDTAVYYCARDQMYSSYGMDVWGQGTTVTVSS
VL: DIQMTQSPSSLSASVGDRVTITCRASESITNWLAWYQQKPGKAPKLLIYKASSLESGVPSRFSGSGSGTDFTLTISSLQPEDFATYYCQQSYGTPYTFGQGTKVEIK

- binding result [4]: no binding (tested: about 20 µg/mL)
- EC50 (read off the curve) [8]: ~0.6 µg/mL
- EC50 (read off the curve) [9]: ~0.5 µg/mL
- binding result [5]: no binding (tested: about 20 µg/mL)
B6: Antibody 69 (antibody, V domains shown)
VH: QVQLVQSGAEVKKPGASVKVSCKASGYTFTSYYMHWVRQAPGQGLEWMGWMNPNSDNTGYAQKFQGRVTMTRDTSTSTVYMELSSLRSEDTAVYYCARVGVGYGYYYYGMDVWGQGTTVTVSS
VL: B4 VL with S26G, G28S, S30G, T31D, A34N, T53S, H92Y, A94T, I96W

- binding result [4]: no binding (tested: about 20 µg/mL)
- EC50 (read off the curve) [9]: ~0.5 µg/mL
- binding result [5]: no binding (tested: about 20 µg/mL)
- EC50 (read off the curve) [6]: ~0.05 µg/mL
- EC50 (read off the curve) [7]: ~0.03 µg/mL
B7: Antibody 73 (antibody, V domains shown)
VH: QVQLVQSGAEVKKPGASVKVSCKASGGTFSSYDINWVRQAPGQGLEWMGWMNPNSGNTGYAQKFQGRVTMTRDTSTSTVYMELSSLRSEDTAVYYCARDLTLYCSSTSCLDAFDYWGQGTLVTVSS
VL: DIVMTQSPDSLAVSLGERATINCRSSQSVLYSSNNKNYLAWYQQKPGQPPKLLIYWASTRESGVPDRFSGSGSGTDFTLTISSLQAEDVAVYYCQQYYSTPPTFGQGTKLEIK

- Kd [1]: 2960 nM
- Kd [2]: 9.03 nM
- Kd [3]: 12.3 nM
- binding result [4]: no binding (tested: about 30 µg/mL)
- binding result [5]: no binding (tested: about 30 µg/mL)
B8: Antibody 92 (antibody, V domains shown)
VH: B7 VH
VL: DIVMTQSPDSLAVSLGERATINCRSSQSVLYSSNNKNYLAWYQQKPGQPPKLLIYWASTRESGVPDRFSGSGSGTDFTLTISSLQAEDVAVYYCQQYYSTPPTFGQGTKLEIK

- Kd [1]: 96.1 nM
- Kd [2]: 35.6 nM
- Kd [3]: 96.9 nM
- binding result [4]: no binding (tested: about 30 µg/mL)
- binding result [5]: no binding (tested: about 30 µg/mL)
B9: Antibody 85 (antibody, V domains shown)
VH: B7 VH with G27Y, S30T, D99E, L100S, T101Y, L102A, L110Y, Y115I, L121M
VL: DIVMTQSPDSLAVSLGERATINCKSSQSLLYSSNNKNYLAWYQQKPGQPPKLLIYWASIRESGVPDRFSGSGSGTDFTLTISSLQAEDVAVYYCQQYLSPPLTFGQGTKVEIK

- EC50 (read off the curve) [9]: ~0.1 µg/mL
- binding result [5]: no binding (tested: about 20 µg/mL)
- EC50 (read off the curve) [6]: ~0.02 µg/mL
- EC50 (read off the curve) [7]: ~0.02 µg/mL
B10: Antibody 71 (antibody, V domains shown)
VH: QVQLVQSGAEVKKPGASVKVSCKASGYTFTSYYIHWVRQAPGQGLEWMGTINPSGGSTSYAQKFQGRVTMTRDTSTSTVYMELSSLRSEDTAVYYCARETSRWLRDYYYGMDVWGQGTTVTVSS
VL: DIVMTQSPLSLPVTPGEPASISCRSSQSLLHSNGYNYLDWYLQKPGQSPQLLIYDASSLESGVPDRFSGSGSGTDFTLKISRVEAEDVGVYYCMQGTHWPLTFGGGTKVEIK
